The results in this text go back to paper PMC11297322, “MEILB2-BRME1 forms a V-shaped DNA clamp upon BRCA2-binding in meiotic recombination” (Nature Communications, 2023).

As usually defined, the stoichiometry N is a count of units in the complex or per binding partner.

B3: MEILB2α (mouse MEILB2 amino-acids 22–81) (domain or fragment, UniProt Q9D4G2 22-81, looked up)
chain: EEFVKVRKKDLERLTTEVMQIRDFLPRILNGELLESFQKLKMVEKNLERKEQELEQLIMD
notes: MEILB2 (meiotic localiser of BRCA2; HSF2BP), mouse, residues 22-81: the α1 helix and the beginning of the α2 helix; Two copies stand in the 2:2 core complex with BRME1; also called HSF2BP; source: E. coli BL21 (DE3), purified with BRME1 (Ni-NTA, amylose, ion exchange, TEV cleavage, SEC); not shown: His6-MBP (pMAT11) or MBP (pRSF-Duet1), N-terminal, cleaved
B4: MBP-MEILB2 (mouse MEILB2 22–338 with N-terminal MBP-tag) (domain or fragment, UniProt Q9D4G2 22-338, looked up)
chain: EEFVKVRKKDLERLTTEVMQIRDFLPRILNGELLESFQKLKMVEKNLERKEQELEQLIMDREHFKARLETAQADSGREKKEKLALRQQLNEAKQQLLQQAEYCTQMGAVTCTLLWGVSSSEEVVKTILGGDKALKFFNITGQTMESFVKSLDGDVKEVDSDENQFVFALAGIVTNVAAIACGREFLVNSSRVLLDTMLQLLGDLKPGQCTKLKVLMLMSLYNVSINSKGLKYITESPGFIPLLWWLLSDPDAEVCLHTLRLIQSVVLEPDVFSKVASELQSSLPLQRILAMSKSRNSHLQSAAQELLEDLRALDCNV
notes: MEILB2 (HSF2BP), mouse, residues 22-338; also called MEILB2 with N-terminal MBP-tag; source: E. coli BL21 (DE3), purified in complex; not shown: MBP, N-terminal, kept
B5: MEILB2 (mouse MEILB2 amino-acids 22–338, the full structured region) (domain or fragment, UniProt Q9D4G2 22-338, looked up)
chain: EEFVKVRKKDLERLTTEVMQIRDFLPRILNGELLESFQKLKMVEKNLERKEQELEQLIMDREHFKARLETAQADSGREKKEKLALRQQLNEAKQQLLQQAEYCTQMGAVTCTLLWGVSSSEEVVKTILGGDKALKFFNITGQTMESFVKSLDGDVKEVDSDENQFVFALAGIVTNVAAIACGREFLVNSSRVLLDTMLQLLGDLKPGQCTKLKVLMLMSLYNVSINSKGLKYITESPGFIPLLWWLLSDPDAEVCLHTLRLIQSVVLEPDVFSKVASELQSSLPLQRILAMSKSRNSHLQSAAQELLEDLRALDCNV
notes: MEILB2 (HSF2BP), mouse, residues 22-338: α-helical region (α1, α2) and C-terminal ARM domain; the N-terminal 21 residues removed; also called HSF2BP; source: E. coli BL21 (DE3), purified in complex (Ni-NTA, amylose, ion exchange, TEV cleavage, SEC); not shown: His6-MBP (pMAT11) or MBP (pRSF-Duet1), N-terminal, cleaved
B6: MEILB2 K26E (mouse MEILB2 22–338) (domain or fragment, UniProt Q9D4G2 22-338, looked up)
chain: EEFVEVRKKDLERLTTEVMQIRDFLPRILNGELLESFQKLKMVEKNLERKEQELEQLIMDREHFKARLETAQADSGREKKEKLALRQQLNEAKQQLLQQAEYCTQMGAVTCTLLWGVSSSEEVVKTILGGDKALKFFNITGQTMESFVKSLDGDVKEVDSDENQFVFALAGIVTNVAAIACGREFLVNSSRVLLDTMLQLLGDLKPGQCTKLKVLMLMSLYNVSINSKGLKYITESPGFIPLLWWLLSDPDAEVCLHTLRLIQSVVLEPDVFSKVASELQSSLPLQRILAMSKSRNSHLQSAAQELLEDLRALDCNV
notes: MEILB2 (HSF2BP), mouse, residues 22-338 with K26E; source: E. coli BL21 (DE3), purified in complex (Ni-NTA, amylose, ion exchange, TEV cleavage, SEC); not shown: His6-MBP (pMAT11) or MBP (pRSF-Duet1), N-terminal, cleaved

For data set [1], the target named is B6. The data set is described as follows: not stated; BRCA2MBD–MEILB2–BRME1MBD complex with MEILB2 K26E; data in Supplementary Figs. 2 and 12c. The following applies: both partners purified.
The target of data set [2] is B5. The data set is described as follows: SEC-MALS; MEILB2–BRME1MBD complex at >5 mg/ml, Superdex 200 Increase 10/300 GL, 20 mM HEPES pH 7.5, 150 mM KCl, 2 mM DTT. The note with it: both partners purified.
Data set [3] addresses B4. The data set is described as follows: SEC-MALS; BRCA2MBD–MEILB2–BRME1MBD ternary complex at >5 mg/ml, Superdex 200 Increase 10/300 GL, 20 mM HEPES pH 7.5, 500 mM KCl, 2 mM DTT. The note with it: both partners purified. (In general: SEC sorts molecules by how far they enter the pores of the column.)
Data set [4] concerns the target B5. The data set is described as above. The note with it: both partners purified.
In data set [5] the target is B3. The data set is described as follows: crystal structure; MEILB2α–BRME1MBD (22–81; 540–574) 2:2 core complex; crystals grown on ice in 20 mM HEPES pH 7.5, 150 mM KCl; 1.50 Å; one 2:2 complex in the asymmetric unit. The note with it: both partners purified.
Data set [6] deals with the molecule itself. The description is as above.
Data set [7] concerns the molecule itself. The data set is described as follows: SEC-MALS; BRCA2MBD–MEILB2–BRME1MBD ternary complex at >5 mg/ml, Superdex 200 Increase 10/300 GL, 20 mM HEPES pH 7.5, 500 mM KCl, 2 mM DTT.
Data set [8] concerns the molecule itself. The data set is described as follows: not stated; BRCA2MBD–MEILB2 in the absence of BRME1MBD, in solution; data in Supplementary Fig. 14.
Data set [9] deals with the molecule itself. The data set is described as follows: SEC-MALS; MEILB2–BRME1MBD complex at >5 mg/ml, Superdex 200 Increase 10/300 GL, 20 mM HEPES pH 7.5, 150 mM KCl, 2 mM DTT.
Data set [10] deals with the molecule itself. The data set is described as follows: not stated; BRCA2MBD–MEILB2–BRME1MBD complex with MEILB2 K26E; data in Supplementary Figs. 2 and 12c.
In data set [11] the target is B5. The data set is described as follows: not stated; BRCA2MBD–MEILB2 in the absence of BRME1MBD, in solution; data in Supplementary Fig. 14. The following applies: both partners purified.

B1: BRME1MBD (mouse BRME1 amino-acids 540–578) (domain or fragment, UniProt Q6DIA7 540-578, looked up)
chain: RMQDATDTVRGLVVELSGLNRLIMSTHRDLEAFKRRKTK
notes: source: E. coli BL21 (DE3), purified in complex with MEILB2 (Ni-NTA, amylose, ion exchange, TEV cleavage, SEC); not shown: His6, N-terminal, cleaved
Turning to B1, the “stoichiometry N” value was 1 BRME1MBD per MEILB2 (4:4 in the 2:4:4 complex) in data set [1], 1 BRME1MBD per MEILB2 (2:2) in data set [2], 1 BRME1MBD per MEILB2 (4:4 in the 2:4:4 complex) in data set [3] and 1 BRME1MBD per MEILB2 (4:4 in the 2:4:4 complex) in data set [4].

B2: BRME1MBD ΔRKTK (mouse BRME1 amino-acids 540–574) (domain or fragment, UniProt Q6DIA7 540-574, looked up)
chain: RMQDATDTVRGLVVELSGLNRLIMSTHRDLEAFKR
notes: BRME1 (BRCA2 and MEILB2-associating protein 1); The crystallography methods give 540–574 for the crystallised BRME1 chain, the results give 540–578; also called BRME1 540–574; BRME1MBD (in the crystallography methods); source: E. coli BL21 (DE3), purified with MEILB2 (Ni-NTA, amylose, ion exchange, TEV cleavage, SEC); not shown: His6, N-terminal, cleaved
As to B2, in data set [5], the binding result is “binds”.
As to B3, the binding result in data set [6] is given as “binds”.
Turning to B4, the “stoichiometry N” value in data set [7] is 4 MEILB2 chains in the 2:4:4 complex (with BRCA2MBD).
Regarding B5, the entries for the “stoichiometry N” value in data set [8], in data set [9] and in data set [7] were 8 MEILB2 chains in the 4:8 oligomer (with BRCA2MBD), 2 MEILB2 chains in the 2:2 complex and 4 MEILB2 chains in the 2:4:4 complex (with BRCA2MBD), respectively.
For B6, in data set [10], the “stoichiometry N” value was 4 MEILB2 chains in the 2:4:4 complex (with BRCA2MBD).

B7: BRCA2MBD (mouse BRCA2 amino-acids 2232–2283, MEILB2-binding domain) (domain or fragment, UniProt P97929 2232-2283, looked up)
chain: PIKRSLLNEFDRIIESKGKSLTPSKSTPDGTVKDRSLFTHHMSLEPVTCGPF
notes: source: E. coli BL21 (DE3), purified in complex with MEILB2 (Ni-NTA, amylose, ion exchange, TEV cleavage, SEC); not shown: His6-MBP (pMAT11) or MBP (pRSF-Duet1), N-terminal, cleaved
B7: the “stoichiometry N” value in data set [11] is 0.5 BRCA2MBD per MEILB2 (4:8); in data set [1] it was 0.5 BRCA2MBD per MEILB2 (2:4 in the 2:4:4 complex); in data set [4], 0.5 BRCA2MBD per MEILB2 (2:4 in the 2:4:4 complex).

B8: MBP-BRCA2MBD (mouse BRCA2 2232–2283 with N-terminal MBP-tag) (domain or fragment, UniProt P97929 2232-2283, looked up)
chain: PIKRSLLNEFDRIIESKGKSLTPSKSTPDGTVKDRSLFTHHMSLEPVTCGPF
notes: also called BRCA2MBD with N-terminal MBP-tag; source: E. coli BL21 (DE3), purified in complex; not shown: MBP, N-terminal, kept
Take B8: the “stoichiometry N” value in data set [3] was 0.5 BRCA2MBD per MEILB2 (2:4 in the 2:4:4 complex).
